According to doi:10.1101/2022.06.02.494578:

Columns and labels:
[1] = target: taxol-stabilised microtubules polymerised from pig brain tubulin (pig) (UniProt P02550); experiment: TIRF imaging of labeled Lis1 on microtubules
[2] = target: taxol-stabilised microtubules polymerised from pig brain tubulin (pig) (UniProt P02550); experiment: co-sedimentation

Lis1 (Pac1, the Lis1 homolog in S. cerevisiae), wild-type dimer, sequence (P39946 whole entry): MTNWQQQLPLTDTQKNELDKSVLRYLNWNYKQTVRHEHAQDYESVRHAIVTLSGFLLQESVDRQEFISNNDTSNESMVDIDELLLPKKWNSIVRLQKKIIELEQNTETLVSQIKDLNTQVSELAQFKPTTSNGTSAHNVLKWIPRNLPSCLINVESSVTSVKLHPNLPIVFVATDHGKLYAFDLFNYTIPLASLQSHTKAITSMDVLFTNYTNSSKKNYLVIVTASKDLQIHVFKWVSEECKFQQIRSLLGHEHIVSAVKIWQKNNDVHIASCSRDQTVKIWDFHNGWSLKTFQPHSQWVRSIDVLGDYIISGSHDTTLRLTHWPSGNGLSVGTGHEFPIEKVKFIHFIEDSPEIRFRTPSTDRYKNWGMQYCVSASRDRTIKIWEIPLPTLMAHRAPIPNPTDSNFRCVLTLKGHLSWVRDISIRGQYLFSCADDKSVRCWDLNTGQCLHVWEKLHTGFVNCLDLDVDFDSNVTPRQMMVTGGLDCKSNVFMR
taxol-stabilised microtubules polymerised from pig brain tubulin (pig), sequence (P02550 whole entry): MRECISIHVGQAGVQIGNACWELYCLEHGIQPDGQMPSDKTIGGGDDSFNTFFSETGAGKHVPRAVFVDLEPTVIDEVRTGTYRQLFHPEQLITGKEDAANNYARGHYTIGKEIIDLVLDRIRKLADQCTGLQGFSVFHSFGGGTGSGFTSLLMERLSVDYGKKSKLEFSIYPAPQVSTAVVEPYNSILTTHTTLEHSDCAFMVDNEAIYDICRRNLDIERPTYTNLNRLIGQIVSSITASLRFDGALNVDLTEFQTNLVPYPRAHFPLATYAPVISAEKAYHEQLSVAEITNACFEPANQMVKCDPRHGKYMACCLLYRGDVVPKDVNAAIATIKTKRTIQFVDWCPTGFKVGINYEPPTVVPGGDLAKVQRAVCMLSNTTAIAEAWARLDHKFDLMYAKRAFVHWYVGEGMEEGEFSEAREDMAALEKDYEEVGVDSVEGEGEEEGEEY
monomeric Lis1 lacking its amino-terminal dimerization domain (domain or fragment), sequence (A6ZPA6 whole entry, the tested form may be a part): as the sequence (P39946 whole entry) above

Row | Substance | time to dissociation from the microtubule [1] [s] | percent of Lis1 intensity on microtubules lost after washing [1] [%] | residence time on the microtubule [1] [s] | Kd [2] [nM]
1 | monomeric Lis1 lacking its amino-terminal dimerization domain (domain or fragment) | 1 to 2 |  |  | 
2 | Lis1 (Pac1, the Lis1 homolog in S. cerevisiae), wild-type dimer (from UniProt P39946 1-494) (natural protein) |  | 92 | 19.3 | 88
